Measurements published in article PMC3320615, “β-Microseminoprotein Endows Post Coital Seminal Plasma with Potent Candidacidal Activity by a Calcium- and pH-Dependent Mechanism” (PLoS Pathogens, 2012).

Tests used:
[1] = system: Candida albicans ATCC 90028; assay: CFU assay with C. albicans; format: cell-based; details: for Estimate (difference between means of log values): control - treatment, pH 4
Outline: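 About 4×10^3–10^4 CFU of C. albicans (ATCC 90028 unless stated) exposed to test substance in 10 mM Tris, 5 mM glucose at pH 7.4 or pH 4 for 4 h at 37 °C. Survivors counted as colonies after 2 days at 30 °C; log counts compared with control.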

[2] = Liposome leakage (carboxyfluorescein release); format: biochemical; details: % ± SD of leakage with Triton X-100, CF fluorescence 520 nm, 37°C, at least triplicate
Protocol: Subsequently, buffer (10 mM Tris, pH 7.4) was added together with 0.1 M carboxyfluorescein (CF) (Sigma, St Louis, MO). After hydration, the lipid mixture was subjected to eight freeze-thaw cycles consisting of freezing in liquid nitrogen and heating to 60°C. Unilamellar liposomes of about Ø140 nm were generated by multiple extrusions through polycarbonate filters (pore size 100 nm) mounted in a […] (Avestin, Ottawa, Canada) at 22°C. Untrapped CF was then removed by two gel filtrations (Sephadex G-50) at 22°C, with Tris buffer as eluent. CF release was determined by monitoring the emitted fluorescence at 520 nm from liposome dispersions (10 mM lipid in 10 mM Tris). An absolute leakage scale was obtained by disrupting the liposomes at the end of the experiment through addition of 0.8 mM Triton X100 (Sigma, St Louis, MO), causing 100% release and dequenching of CF. Although calcein is frequently used for pH-dependent leakage studies, the high charge of this dye has been noted to influence its leakage behavior in the presence of highly cationic peptides. Instead, therefore, CF was used as a leakage marker at both pH 6.0 and 7.4, avoiding pH-dependent fluorescence effects through neutralization prior to probing the limiting leakage in case of pH 6.0 leakage. Throughout, a SPEX-fluorolog 1650 0.22-m double spectrometer (SPEX Industries, Edison, NJ) was used for the liposome leakage assay. Measurements were performed in at least triplicate at 37°C.

B1: β-microseminoprotein (natural protein, human, UniProt P08118 21-114, looked up)
chain: SCYFIPNEGVPGDSTRKCMDLKGNKHPINSEWQTDNCETCTCYETEISCCTLVSTPVGYDKDNCQRIFKKEDCKYIVVEKKDPKKTCSVSEWII
notes: human β-microseminoprotein (MSP, PSP94), native protein purified from seminal plasma; also called MSP; PSP94
Estimate (difference between means of log values) ([1]; 25 µM MSP + 25 µM EDTA + 0.5 mM calcium, experiment 1): -0.9947 | Estimate (difference between means of log values) ([1]; 25 µM MSP + 25 µM EDTA + 0.5 mM calcium, experiment 2): -0.9876 | Estimate (difference between means of log values) ([1]; 25 µM MSP + 25 µM EDTA + 0.5 mM calcium, experiment 3): -1.0805 | Estimate (difference between means of log values) ([1]; 25 µM MSP + 25 µM EDTA + 0.5 mM magnesium, experiment 1): 1.9399 | Estimate (difference between means of log values) ([1]; 25 µM MSP + 25 µM EDTA + 0.5 mM magnesium, experiment 2): 2.1624 | Estimate (difference between means of log values) ([1]; 25 µM MSP + 25 µM EDTA + 0.5 mM magnesium, experiment 3): 1.6349 | Estimate (difference between means of log values) ([1]; 25 µM MSP + 25 µM EDTA, experiment 1): 4.1638 | Estimate (difference between means of log values) ([1]; 25 µM MSP + 25 µM EDTA, experiment 2): 4.7089 | Estimate (difference between means of log values) ([1]; 25 µM MSP + 25 µM EDTA, experiment 3): 4.1911 | Estimate (difference between means of log values) ([1]; 25 µM, experiment 1): -0.06377 | Estimate (difference between means of log values) ([1]; 25 µM, experiment 2): -0.4481 | Estimate (difference between means of log values) ([1]; 25 µM, experiment 3): -0.4892 | Fungicidal activity in CFU assay ([1]; native MSP 10 µM + 20 µM EDTA or recombinant dialyzed MSP 10 µM + 10 µM EDTA): prominent fungicidal activity | Candidacidal activity in CFU assay ([1]; neutral and acidic pH, without EDTA): no candidacidal activity | Liposome leakage ([2]; pH 6.0, +EDTA, DOPC/ergosterol liposomes): 53±5% | Liposome leakage ([2]; pH 6.0, without EDTA, DOPC/ergosterol liposomes): 36±8% | Liposome leakage ([2]; pH 7.4, +EDTA): 20±6% | Liposome leakage ([2]; pH 7.4, without EDTA): 20±5%
